In series [1] the target is T1, Cdc13-DBD (Saccharomyces cerevisiae (strain SCY325), UniProt P32797 497-694).
T1 sequence: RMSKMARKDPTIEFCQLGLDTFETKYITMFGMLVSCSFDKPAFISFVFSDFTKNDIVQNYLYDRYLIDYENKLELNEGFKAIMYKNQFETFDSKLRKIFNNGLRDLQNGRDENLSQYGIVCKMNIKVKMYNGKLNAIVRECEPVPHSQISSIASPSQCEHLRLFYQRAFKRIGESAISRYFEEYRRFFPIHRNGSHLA
The series is described as follows: competition; competitor in water, 50 or 75 nM, vs 32P-ONG11; EMSA: 1x K+ buffer (20 mM potassium phosphate pH 7.0, 135 mM KCl, 9% glycerol), 10 min at 22 C/RT, 6% PAGE in 0.5x TBE; NMR in K+TD (K+ buffer + 0.25% Triton X-100, 1 mM DTT). Particulars: protein: recombinant, tags: GST tag (pGEX-6T-2) removed with HRV 3C protease, vector-derived residues may remain, unfolded single strand.

Series [2] deals with T1, Cdc13-DBD. The series is described as follows: EMSA; freshly boiled probe, protein titration; EMSA: 1x K+ buffer (20 mM potassium phosphate pH 7.0, 135 mM KCl, 9% glycerol), 10 min at 22 C/RT, 6% PAGE in 0.5x TBE; NMR in K+TD (K+ buffer + 0.25% Triton X-100, 1 mM DTT). Particulars: protein: recombinant; tags: GST tag (pGEX-6T-2) removed with HRV 3C protease; vector-derived residues may remain; label: 5'-32P; single strand when freshly boiled; G-hairpin after long folding.

Three molecules from article PMC7335780, “Role of folding kinetics of secondary structures in telomeric G-overhangs in the regulation of telomere maintenance in Saccharomyces cerevisiae” can be followed below.

For GTGTGGGTGTG (ssDNA) [ONG11 unfolded (H2O or freshly boiled)], in series [1], the binding result is given as “binds”. On to GTGTGGGTGTGGTGTGGGTGTGGTGTGGGTGTG (ssDNA) [ONG1 unfolded (H2O)], for which the binding result in series [1] (label: none) is “binds”. With GTGTGGGTGTG (ssDNA, 5' phosphate) [ONG11 5'-32P probe], the binding result in series [2] is “binds”.
